Legend:
Format in all cases: in vitro ADME, human
[1] = substrate: COc1cc(-c2coc3cc(O)c(OC)c(O)c3c2=O)cc(O)c1OC; assay: Enzyme kinetics with recombinant CYP2C19; settings: other: recombinant CYP2C19, mean ± SE, n = 3; 30.0 °C
Procedure: (§1) A series of concentrations (1–300 μM) of tectorigenin, irigenin, or irisflorentin were added to HLMs or recombinant enzymes. Nonlinear regression was performed on the substrate concentration and generation rate of metabolites to investigate the enzymatic kinetic characteristics of these components in the metabolic system. All experiments were carried out in triplicate.
(§2) A Waters AQUITY UPLC system (Waters, Milford, MA, United States) equipped with a Dikma ODS C18 column (150 × 4.6 mm, 5 μm) was used for separation at 30°C. The binary mobile phase consisted of A (an aqueous solution containing 0.1% acetic acid and 2 mM ammonium acetate) and B (acetonitrile) at a flow rate of 1 mL/min. The elution settings were as follows: 0 → 5 min: 10% B → 20% B; 5 min → 20 min: 20% B → 50% B; 20 min → 21 min: 50% B → 60% B; 21 min → 25 min: 60% B → 90% B; 25 min → 25.1 min 90%–10% B; 25.1 min → 30 min 10% B. Flow rate: 1 mL/min 260 nm was used as the detection wavelength. Calibration standard curves were generated using a reaction mixture containing tectorigenin, irigenin, or irisflorentin at a concentration range of 0.03–10 µM. The concentrations of the metabolites were calculated using a standard curve of the substrates.
(§3) GraphPad Prism software 5.0 was used to perform non-linear fitting between the metabolite generation rate (V) and substrate concentration [S]. The appropriateness of the enzyme kinetic model was determined using R ^2 and the Eadie-Hofstee fit. The maximum metabolic rate (Vmax) and Michaelis constant (Km) were obtained for kinetic processes that conformed to the Michaelis–Menten model (Equation 1). For kinetic processes that conform to the sigmoidal kinetics model (Equation 2), Vmax, Hill coefficient (n), and S50, concentrations at 50% Vmax were obtained. Intrinsic clearance (Clint) was calculated according to Equation 3 (for the Michaelis–Menten model) and Equation 4 (for the sigmoidal kinetics model). All data are expressed as mean ± Standard Error (SE). One - way analysis of variance was used to compare the differences between different groups. […]

[2] = substrate: COc1cc(-c2coc3cc4c(c(OC)c3c2=O)OCO4)cc(OC)c1OC; assay: Enzyme kinetics with recombinant CYP1A2; settings: other: recombinant CYP1A2, sigmoidal kinetics (S50), mean ± SE, n = 3; 30.0 °C
Procedure: as §1, §2, §3

[3] = substrate: COc1c(O)cc2occ(-c3ccc(O)cc3)c(=O)c2c1O; assay: Enzyme kinetics with recombinant CYP2E1; settings: other: recombinant CYP2E1, mean ± SE, n = 3; 30.0 °C
Procedure: as §1
A Waters AQUITY UPLC system (Waters, Milford, MA, United States) equipped with a Dikma ODS C18 column (150 × 4.6 mm, 5 μm) was used for separation at 30°C. The binary mobile phase consisted of A (an aqueous solution containing 0.1% acetic acid and 2 mM ammonium acetate) and B (acetonitrile) at a flow rate of 1 mL/min. […] The concentrations of the metabolites were calculated using a standard curve of the substrates.
GraphPad Prism software 5.0 was used to perform non-linear fitting between the metabolite generation rate (V) and substrate concentration [S]. The appropriateness of the enzyme kinetic model was determined using R ^2 and the Eadie-Hofstee fit. […] Intrinsic clearance (Clint) was calculated according to Equation 3 (for the Michaelis–Menten model) and Equation 4 (for the sigmoidal kinetics model). All data are expressed as mean ± Standard Error (SE). […]

B1: CYP2C19 (Homo sapiens) (protein)
chain: MDPFVVLVLCLSCLLLLSIWRQSSGRGKLPPGPTPLPVIGNILQIDIKDVSKSLTNLSKIYGPVFTLYFGLERMVVLHGYEVVKEALIDLGEEFSGRGHFPLAERANRGFGIVFSNGKRWKEIRRFSLMTLRNFGMGKRSIEDRVQEEARCLVEELRKTKASPCDPTFILGCAPCNVICSIIFQKRFDYKDQQFLNLMEKLNENIRIVSTPWIQICNNFPTIIDYFPGTHNKLLKNLAFMESDILEKVKEHQESMDINNPRDFIDCFLIKMEKEKQNQQSEFTIENLVITAADLLGAGTETTSTTLRYALLLLLKHPEVTAKVQEEIERVIGRNRSPCMQDRGHMPYTDAVVHEVQRYIDLIPTSLPHAVTCDVKFRNYLIPKGTTILTSLTSVLHDNKEFPNPEMFDPRHFLDEGGNFKKSNYFMPFSAGKRICVGEGLARMELFLFLTFILQNFNLKSLIDPKDLDTTPVVNGFASVPPFYQLCFIPV
notes: purchased CYPEX (Dundee, United Kingdom)
Question: How did the K0.5 [1] turn out when B1 was run?
Answer: Its K0.5 is 31.7 ± 2.4 µM.

Question: What about the kcat [1] of the same protein?
Answer: The kcat was 0.255 ± 0.005 s⁻¹.

Question: What about the kcat/Km [1] of the same protein?
Answer: The kcat/Km was 8330 M⁻¹ s⁻¹.

B2: CYP1A2 (Homo sapiens) (protein)
chain: MALSQSVPFSATELLLASAIFCLVFWVLKGLRPRVPKGLKSPPEPWGWPLLGHVLTLGKNPHLALSRMSQRYGDVLQIRIGSTPVLVLSRLDTIRQALVRQGDDFKGRPDLYTSTLITDGQSLTFSTDSGPVWAARRRLAQNALNTFSIASDPASSSSCYLEEHVSKEAKALISRLQELMAGPGHFDPYNQVVVSVANVIGAMCFGQHFPESSDEMLSLVKNTHEFVETASSGNPLDFFPILRYLPNPALQRFKAFNQRFLWFLQKTVQEHYQDFDKNSVRDITGALFKHSKKGPRASGNLIPQEKIVNLVNDIFGAGFDTVTTAISWSLMYLVTKPEIQRKIQKELDTVIGRERRPRLSDRPQLPYLEAFILETFRHSSFLPFTIPHSTTRDTTLNGFYIPKKCCVFVNQWQVNHDPELWEDPSEFRPERFLTADGTAINKPLSEKMMLFGMGKRRCIGEVLAKWEIFLFLAILLQQLEFSVPPGVKVDLTPIYGLTMKHARCEHVQARLRFSIN
notes: as for B1
Question: For B2, which K0.5 [2] is on record?
Answer: The K0.5 was 38.5 ± 2.5 µM.

Question: And the kcat [2]?
Answer: Its kcat is 1.77 ± 0.0467 s⁻¹.

Question: What about the kcat/Km [2] of the same protein?
Answer: Its kcat/Km is 25000 M⁻¹ s⁻¹.

B3: CYP2E1 (Homo sapiens) (protein)
chain: MSALGVTVALLVWAAFLLLVSMWRQVHSSWNLPPGPFPLPIIGNLFQLELKNIPKSFTRLAQRFGPVFTLYVGSQRMVVMHGYKAVKEALLDYKDEFSGRGDLPAFHAHRDRGIIFNNGPTWKDIRRFSLTTLRNYGMGKQGNESRIQREAHFLLEALRKTQGQPFDPTFLIGCAPCNVIADILFRKHFDYNDEKFLRLMYLFNENFHLLSTPWLQLYNNFPSFLHYLPGSHRKVIKNVAEVKEYVSERVKEHHQSLDPNCPRDLTDCLLVEMEKEKHSAERLYTMDGITVTVADLFFAGTETTSTTLRYGLLILMKYPEIEEKLHEEIDRVIGPSRIPAIKDRQEMPYMDAVVHEIQRFITLVPSNLPHEATRDTIFRGYLIPKGTVVVPTLDSVLYDNQEFPDPEKFKPEHFLNENGKFKYSDYFKPFSTGKRVCAGEGLARMELFLLLCAILQHFNLKPLVDPKDIDLSPIHIGFGCIPPRYKLCVIPRS
notes: as for B1
Question: B3 was tested. Which K0.5 [3] did it give?
Answer: The K0.5 was 130.4 ± 18.8 µM.

Question: And the kcat [3]?
Answer: The kcat was 0.427 ± 0.0267 s⁻¹.

Reference: publication PMC11850249, “Typical and atypical metabolic characteristics of three iridaceae isoflavone components: in vitro and in silico studies” (Frontiers in Pharmacology, 2025)
